Results: paper PMC4282956 (Journal of immunology (Baltimore, Md. : 1950), 2014)

Target: HLA-B*57:01.L82R/LF9 (human | )
Test: SPR

- Kd: 35.5 ± 8.34 µM
B1: Soluble KIR3DL1*001 (receptor)
chain: HMGGQDKPFLSAWPSAVVPRGGHVTLRCHYRHRFNNFMLYKEDRIHIPIFHGRIFQESFNMSPVTTAHAGNYTCRGSHPHSPTGWSAPSNPVVIMVTGNHRKPSLLAHPGPLVKSGERVILQCWSDIMFEHFFLHKEGISKDPSRLVGQIHDGVSKANFSIGPMMLALAGTYRCYGSVTHTPYQLSAPSDPLDIVVTGPYEKPSLSAQPGPKVQAGESVTLSCSSRSSYDMYHLSREGGAHERRLPAVRKVNRTFQADFPLGPATHGGTYRCFGSFRHSPYEWSDPSDPLLVSVTGNPS
